In PMC4991664:

Molecular target: Atad2-tag (endogenous mouse Atad2 with a C-terminal 6xHis-Flag-Ha TAP tag, knock-in) (mouse (endogenous in 46C ES cells)) (UniProt Q8CDM1)
Experiment: co-IP; anti-Flag immunoprecipitation of protein extracts of 46C^tag and parental 46C ES cells; western blot with anti-H4 and anti-acetylated H4, compared with dilutions of the input

Sequence of UniProt Q8CDM1 (Q8CDM1 whole entry): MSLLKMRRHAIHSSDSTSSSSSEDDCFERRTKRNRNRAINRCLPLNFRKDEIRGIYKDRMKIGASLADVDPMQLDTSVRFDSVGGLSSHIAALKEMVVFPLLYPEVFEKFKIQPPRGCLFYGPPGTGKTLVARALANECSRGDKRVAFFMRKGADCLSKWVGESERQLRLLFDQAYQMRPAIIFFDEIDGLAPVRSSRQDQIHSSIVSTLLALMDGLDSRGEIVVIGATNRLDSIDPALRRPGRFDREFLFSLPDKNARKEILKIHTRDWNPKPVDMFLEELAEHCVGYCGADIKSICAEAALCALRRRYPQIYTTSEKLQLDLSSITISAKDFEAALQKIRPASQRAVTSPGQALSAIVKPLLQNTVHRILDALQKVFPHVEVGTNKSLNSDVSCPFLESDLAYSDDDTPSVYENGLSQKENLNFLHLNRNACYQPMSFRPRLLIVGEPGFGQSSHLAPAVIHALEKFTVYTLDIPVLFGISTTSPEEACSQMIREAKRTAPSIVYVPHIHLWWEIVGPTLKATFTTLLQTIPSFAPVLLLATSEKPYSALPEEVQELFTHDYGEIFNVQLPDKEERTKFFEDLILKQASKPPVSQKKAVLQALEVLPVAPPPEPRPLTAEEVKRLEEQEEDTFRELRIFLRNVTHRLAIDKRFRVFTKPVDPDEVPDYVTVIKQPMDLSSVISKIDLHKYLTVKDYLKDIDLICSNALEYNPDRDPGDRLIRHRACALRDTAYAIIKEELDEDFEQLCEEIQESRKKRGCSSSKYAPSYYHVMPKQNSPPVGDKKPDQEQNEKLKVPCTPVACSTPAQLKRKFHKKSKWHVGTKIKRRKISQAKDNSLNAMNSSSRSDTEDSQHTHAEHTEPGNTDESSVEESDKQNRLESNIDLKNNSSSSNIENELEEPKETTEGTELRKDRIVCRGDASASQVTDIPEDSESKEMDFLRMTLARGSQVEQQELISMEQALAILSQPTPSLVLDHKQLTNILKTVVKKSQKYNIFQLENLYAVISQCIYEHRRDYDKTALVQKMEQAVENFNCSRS

fraction of the input immunoprecipitated (fraction of the input) | Substance
0.02 | acetylated histone H4 (from UniProt P62806 1-103) (natural protein)
0.01 | histone H4 (from UniProt P62806 1-103) (natural protein)
